Experimental data reported in the DeepSol protein solubility set.

Assay: soluble on expression in E. coli; label from the status in PepcDB or PDB records

| Sequence | soluble on expression in E. coli |
| --- | --- |
| MAPCLENVACVNLSAMPPAPPSPQPVSHKQAATLCRQGRTCALKSGSNESGGSVTSTYTSYRLISQDIGKSLERVSKQPDVARETEYYREKIGSVKSIDDFMADTRLYNYALKAHGLEDMAYAKAFIRKVLTEGASDKNAFANKLSDNRYAELAKSLDFAGLGAAATATEAAKSGVIGNYARQTLEQEAGDDNNGVRLALYFERKAPTIKSGLDFLADDALAQVFRTTFNLPDAFAAADVDKQAALIEKSINIKDLQDPEKVGKLLERFTIMWEMQNPSTTYDPLAVFGSSSGYGISPDLLISINSLKLGGKAAALEHHHHHH | soluble |
| MGSDKIHHHHHHMTISIPDTLTTDNSEKYIVSIRLRSGGLSFSGYDPSAGGSFFYRETEFDRAVSFISSLKEFFFAHEFLTWTYKRINVICVSPEYSLVPDNYWGDGKEGRLLDFSFSTLELHCLTDTLKEQQAKLVFGVDEEVYEFCSRSLLHPFFSHYMTSLLTLWTKESSASLPRQMYVVIERKRMDVACYAQGKLLFVNSYPIDQSDDIVYYILYVWKQAGLDQEKDQLLLAGESSSRMRVLERLRAYLRHVKPVEIPSEAYLLGTDVTKAPMDLISLLICE | not soluble |
| AIASTMVYPREERLEKLTQDEIISSTKLVIQGLEALKSEHNSILQSLLETIQCLKKDEEASLVHEKSSLLRKSVEMIELGLGEAQVMMALSNHLNAVESEKQKLRAQVRRLCQENQWLRDELANTQHKVQKSEQSVAQLEEEKKHLEFMNQLKKYDDGATPEVSPHNDMHRDVSLSVRQLKRLRESK | soluble |
| GSHMSDGLPNKKRKRRVLFTKAQTYELERRFRQQRYLSAPEREHLTSLIRLTPTQVKIWFQNHRYKTKRAQNEKGYEGHP | soluble |
| MERVAIFIDGSNLYKGLVQHLGSDYRLNFVEFITLLTAGRKLLRAYYYNAPLPPEDPAAKAHQSFLNYLKRVPYVTVRLGRLERRADGFVEKGVDIQIAVDMLRLAFVNAYDIAVLVSGDGDFAEVVRVVQDLGKQVENTTFHALSSHRLAQQADHFYPLDDFPWERLRAQVSPASPEEEA | soluble |
| GPGSMIYVSERPMARTFVVFDKDGKPAERPDEYFPLVQMDKEEFVNRRRGHVADENLFAVDGDLILSHLIMGTQIMYDAEKNAVHSCDTGESEADGSIPISVRVLSDEFVVRHESQPDCLAWGSEAPSVYAG | not soluble |
| MGSDKIHHHHHHMREHDEGLLNGITPDRIRDHIRALEGVRHPLAAPEALERAAGYIRETFGSLGYPVADHLFMDGGREFANIIATHTGGSKSGRRVLVVAHYDTVTTTPGADDNASGVAVLLELATILKCLRFERCLQFVAVTLEENEDEHNPRDLGTRGSRALAAHARREGWEIEGAVVLESVAYAGDAVVQRTPAGIPFTVPATGNFIGVIGNEASRGMVDRFGQAVGSREAGLPWVPLVVPGNGGLLPDSRRSDHAPFWDHGYKAIMLTDTTNFRNPHYHQPSDTLETLNLDFAVQVCRATAALLLDIAKASEP | not soluble |
| MSLTEAPRVRLAEAEVFERPVEFRFPFRFGSARVATAPQAFVRVRVEDARGRSAIGWSAEMMMPKWFDKNPGLSPEDNVEQLRASLRLAIEGLTSLQAQTPFGLHAAAEGDHHRAAAGHGLPALVASYGLALLDRAILDALCRMTGASAAGAVRANLPGITGATAPDLEGFDLARFLSRLEPGPRLAVRHTIGLADALTAADLAPGQRLEDGLPQTLEEVIAAYGHRYFKIKVSGRPAEDTRRLLAIAAVLDQRVDAYRVTLDGNEQFENADAVADLLDRIAEEPRLEKLRASALFFEQPIVRAEALSRPVTEVAGRMPLEIDESDGDIGAFLRARALGYAGISSKSCKGFYRALVNRARVEMWNAEAGAARSFMSAEDLTTQSGLALQQDLVLAALVGAGHVERNGHHYVDGMAGAPAAEQAAYLAHHGDLYESGSGRARLAIRGGEITFSTVLRSVGLGSSVEPDWVAMVSEGHHHHHH | not soluble |
| NGWVWKLGMNLTHYKNKVTELPLKDMPQSGVNKLQVGRSVYDFYMKEWAGVDPDNGNPLWYMDEKDANDNLTGKRVTTSDYASANYYYVNKSSLPKVYGGFNTSLSWKGFDLSAIFAYSIGGYIYNRDITMILHNGSLEGRDWSTEILKRWTPENRYTDVPALSTTSNNWNSASTRFLQNNSYMRLKNLTLSYDLPKQWISKLALSSVQVFVQGDNLFTIHRNQGLDPEQGITGITYYRYPAMRTISGGINLSF | not soluble |
| MGSDKIHHHHHHMAVECIKDKVTRYPERASYSDEDLVAMLDRNFTCTVSFIDGGIPYAIPMMLASEGKTIYLHGSMKSRIYGILKTGQLIAISLLEINGIVLAKEIKNNSINYVSALIFGRPYEIDDTEKKIEVFRLLTEKLVKGRRDNSIKPSYEDLNGVFVFAVKPETFSMKARTGPPHDTSTDDIWSGVLPIQHTISEAGENAPEYVKSLYGKRIFI | not soluble |
| MSLKIVYITENAEKLAKDVKSVFDYYFYDNEVFNIKDFEITGNETGFVFIMASGIVLRKYIPEIQNDKLKDPFVILMDESKKHVVPLLSNHIGGGNYFSDLIGNFLNLDVVKTTATDVNGKIGIDELSKIYFLENPLKKDILSVNKKVLSEKPDLIIPKAWKTSKKLLNSYNVSFHDESHVLVDDIVLKPKTVSLGLGSRRNIEKSKVYWAVKKALYLRDIPTWRIDTFSTVSVKKDEYGILKTAERFDKDLFIFEIDELNEIYSKYPLIRSEFVFKTIGTYGVSEPCAILGISKITGETDFEMKKLVLNKMKKDGVSVSIAVEGHHHHHH | not soluble |
| MSHLRIPANWKVKRSTPFFTKENVPAALLSHHNTAAGVFGQLCVMEGTVTYYGFANETATEPEVKVVINAGQFATSPPQYWHRVELSDDARFNIHFWVEEDHQGEEMYQQKKA | not soluble |
| MGSDKIHHHHHHMNLRGKMIVIKFGGSSLRSEFKSAVSLIKALSEEKDVVVVVSALKGITDLLEKYTDTFDSRYAVEVSKTYLEFGKRMGIDTSSLSPYLKQLFNPPDLPPQALRDYILSIGELLSAAMIAEKANGAVIFPWDLFVAHGSFGNGFIDIKKSKRNVKLVKEALESGKIPIIPGFIANLNGYRVTLGRGGSDYSAVALGVLLNSELVAIMSDVEGIFTADPKMIPYSLLIPYMSYDEILIASKYGMEAIQWKAAKLAKEYEALILFGRASDWRMGTVVSNSSSHMPLLSYDQGKLLVMNMDSEIPYEVVEEGEFWRVYRVPKRDSIKIIKELHRKIIYQENAQLLGRVKA | not soluble |
| MSYNYVVTAQKPTAVNGCVTGHFTSAEDLNLLIAKNTRLEIYVVTAEGLRPVKEVGMYGKIAVMELFRPKGESKDLLFILTAKYNACILEYKQSGESIDIITRAHGNVQDRIGRPSETGIIGIIDPECRMIGLRLYDGLFKVIPLDRDNKELKAFNIRLEELHVIDVKFLYGCQAPTICFVYQDPQGRHVKTYEVSLREKEFNKGPWKQENVEAEASMVIAVPEPFGGAIIIGQESITYHNGDKYLAIAPPIIKQSTIVCHNRVDPNGSRYLLGDMEGRLFMLLLEKEEQMDGTVTLKDLRVELLGETSIAECLTYLDNGVVFVGSRLGDSQLVKLNVDSNEQGSYVVAMETFTNLGPIVDMCVVDLERQGQGQLVTCSGAFKEGSLRIIRNGIGIHEHASIDLPGIKGLWPLRSDPNRETYDTLVLSFVGQTRVLMLNGEEVEETELMGFVDDQQTFFCGNVAHQQLIQITSASVRLVSQEPKALVSEWKEPQAKNISVASCNSSQVVVAVGRALYYLQIHPQELRQISHTEMEHEVACLDITPLGDSNGLSPLCAIGLWTDISARILKLPSFELLHKEMLGGEIIPRSILMTTFESSHYLLCALGDGALFYFGLNIETGLLSDRKKVTLGTQPTVLRTFRSLSTTNVFACSDRPTVIYSSNHKLVFSNVNLKEVNYMCPLNSDGYPDSLALANNSTLTIGTIDEIQKLHIRTVPLYESPRKICYQEVSQCFGVLSSRIEVQDTSGGTTALRPSASTQALSSSVSSSKLFSSSTAPHETSFGEEVEVHNLLIIDQHTFEVLHAHQFLQNEYALSLVSCKLGKDPNTYFIVGTAMVYPEEAEPKQGRIVVFQYSDGKLQTVAEKEVKGAVYSMVEFNGKLLASINSTVRLYEWTTEKDVRTECNHYNNIMALYLKTKGDFILVGDLMRSVLLLAYKPMEGNFEEIARDFNPNWMSAVEILDDDNFLGAENAFNLFVCQKDSAATTDEERQHLQEVGLFHLGEFVNVFCHGSLVMQNLGETSTPTQGSVLFGTVNGMIGLVTSLSESWYNLLLDMQNRLNKVIKSVGKIEHSFWRSFHTERKTEPATGFIDGDLIESFLDISRPKMQEVVANLQYDDGSGMKREATADDLIKVVEELTRIH | soluble |
| ANATVKMGSDSGALVFEPSTVTIKAGEEVKWVNNKLSPHNIVFAADGVDADTAAKLSHKGLAFAAGESFTSTFTEPGTYTYYCEPHRGAGMVGKVVVD | soluble |
